Source: FireProtDB (doi:10.1093/protein/14.11.891)

Settings: Salmonella typhimurium (strain LT2 / SGSC1412 / ATCC 700720), pH 7, CD, Potassium phosphate 10 mM, reversible: yes, whole UniProt chain shown

B1: Sialidase wild type, P29768 (protein)
chain: MTVEKSVVFKAEGEHFTDQKGNTIVGSGSGGTTKYFRIPAMCTTSKGTIVVFADARHNTASDQSFIDTAAARSTDGGKTWNKKIAIYNDRVNSKLSRVMDPTCIVANIQGRETILVMVGKWNNNDKTWGAYRDKAPDTDWDLVLYKSTDDGVTFSKVETNIHDIVTKNGTISAMLGGVGSGLQLNDGKLVFPVQMVRTKNITTVLNTSFIYSTDGITWSLPSGYCEGFGSENNIIEFNASLVNNIRNSGLRRSFETKDFGKTWTEFPPMDKKVDNRNHGVQGSTITIPSGNKLVAAHSSAQNKNNDYTRSDISLYAHNLYSGEVKLIDDFYPKVGNASGAGYSCLSYRKNVDKETLYVVYEANGSIEFQDLSRHLPVIKSYN
- denaturant midpoint (higher = more stable) (25 °C, GdnHCl): 1.33 M
- unfolding free energy (25 °C, GdnHCl): 4.24 kcal/mol
- Tm (Thermal): 57 °C
